These results are taken from US20210060169A1.

The target in the assay is human IL-2Rαβγ (human) (UniProt P01589). Description: cell-based or functional assay.
Sequence of human IL-2Rαβγ (human) (P01589 22-272, chain 1 of 3): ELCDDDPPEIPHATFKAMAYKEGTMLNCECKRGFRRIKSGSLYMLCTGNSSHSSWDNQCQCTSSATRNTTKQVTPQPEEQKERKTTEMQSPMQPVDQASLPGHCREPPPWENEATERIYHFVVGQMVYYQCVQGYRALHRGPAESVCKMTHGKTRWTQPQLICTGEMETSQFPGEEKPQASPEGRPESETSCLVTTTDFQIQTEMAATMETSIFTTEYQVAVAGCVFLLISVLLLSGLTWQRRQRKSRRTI
Sequence of human IL-2Rαβγ (human) (P14784 27-551, chain 2 of 3, further chain): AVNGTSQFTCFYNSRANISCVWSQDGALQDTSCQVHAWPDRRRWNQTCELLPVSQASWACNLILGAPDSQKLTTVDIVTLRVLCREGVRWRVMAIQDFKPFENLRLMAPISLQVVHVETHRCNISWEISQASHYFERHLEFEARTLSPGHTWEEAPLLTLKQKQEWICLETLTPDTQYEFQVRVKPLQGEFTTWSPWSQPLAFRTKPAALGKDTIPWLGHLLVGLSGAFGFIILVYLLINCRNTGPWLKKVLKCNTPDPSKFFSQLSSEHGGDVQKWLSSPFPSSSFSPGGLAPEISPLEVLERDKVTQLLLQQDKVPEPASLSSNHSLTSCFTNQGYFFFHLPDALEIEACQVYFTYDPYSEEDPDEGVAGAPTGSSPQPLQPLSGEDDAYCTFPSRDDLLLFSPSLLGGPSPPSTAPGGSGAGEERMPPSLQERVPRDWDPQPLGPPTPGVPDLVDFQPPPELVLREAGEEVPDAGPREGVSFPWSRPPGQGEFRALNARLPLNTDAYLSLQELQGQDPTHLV
Sequence of human IL-2Rαβγ (human) (P31785 23-369, chain 3 of 3, further chain): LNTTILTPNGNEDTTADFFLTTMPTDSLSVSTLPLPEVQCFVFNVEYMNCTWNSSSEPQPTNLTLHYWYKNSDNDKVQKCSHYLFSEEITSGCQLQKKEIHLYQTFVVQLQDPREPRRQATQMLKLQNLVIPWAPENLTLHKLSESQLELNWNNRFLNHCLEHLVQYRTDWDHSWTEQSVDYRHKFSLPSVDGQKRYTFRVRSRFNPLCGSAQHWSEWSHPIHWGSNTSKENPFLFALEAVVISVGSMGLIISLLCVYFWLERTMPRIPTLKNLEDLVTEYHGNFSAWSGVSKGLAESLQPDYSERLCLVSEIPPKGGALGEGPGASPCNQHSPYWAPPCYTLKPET

Sequence of 8His-S4(oAzZK) (P60568 other isoform, or with tags, fused parts or gaps): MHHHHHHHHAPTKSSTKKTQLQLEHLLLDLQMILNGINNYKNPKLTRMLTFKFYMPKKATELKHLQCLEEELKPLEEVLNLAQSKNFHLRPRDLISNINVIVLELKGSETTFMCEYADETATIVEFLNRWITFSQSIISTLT

Turning to “8His-S4(oAzZK) (from UniProt P60568 25-153) (ligand)”, the Standardized EC50 ratio value is < 5.
